In patent EP4450093A1, “CLEAVABLE IMMUNE CELL ENGAGERS” (Synaffix B.V., priority 2023, dated 2024):

Biological target: IL-15 receptor on the IL-15 cells of the IL-15 bioassay (Promega, cat.# JA2015) (mouse cell line)
Assay: cell-based or functional assay

trastuzumab (Herceptin), non-modified antibody
Fold induction, IL-15 bioassay: 0.9 fold
